In patent US20200325224A1 (Hoffmann-La Roche, published 2020):

Experiments:
[1] = biological target: T1, human CD3e-1-26-Fc(knob)-Avi/Fc(hole) (human, UniProt P0DOX5 223-449 = IgG part); assay: ELISA, biotinylated target on streptavidin plate
T1 construct: First 26 amino acids of mature CD3e fused to Fc(knob), co-expressed with Fc(hole); biotinylated for the ELISA; also called huCD3e-1-26 huFc
Description: (§1) Binding of anti-CD3 antibodies to human and cynomolgus CD3 proteins and peptides was determined by ELISA. Biotinylated target proteins and peptides were immobilized on a 384-well streptavidin-coated microplate (MaxiSorb; MicroCoat, DE, Cat. No. 11974998/MC1099) in 25 μl/well, in DPBS (PAN Biotech GmbH, DE, Cat. No. P0436500) by incubation over night at 4° C. […] Peptides used were produced with biotin attached via linkers either to the N- or the C-terminus of the peptide. For target binding ELISA N- and C-terminal biotinylated peptides were mixed in a 1:1 ratio for immobilization on microplates (Table 8) and used separately (Table 8). […] Antibodies were detected with peroxidase-linked, species-specific anti-rabbit IgG, (F(ab′)₂ fragment, from donkey, GE, Cat. No. NA 9340) diluted 1:5000 in 1×PBS (w/0.5% BSA, w/0.05% Tween 20) for 1 h at room temperature. Detection antibodies were removed by four washing steps with washing buffer and signal was developed by addition of TMB substrate (TMB solution, Roche). Absorbance was read out after fixed time intervals at […].

[2] = biological target: T2, cynomolgus CD3e 5-26-Fc(knob)-Avi/Fc(hole) (cynomolgus, UniProt P0DOX5 223-449 = IgG part); assay: ELISA, biotinylated target on streptavidin plate
T2 construct: Residues 5-26 of mature CD3e fused to Fc(knob), co-expressed with Fc(hole); biotinylated for the ELISA; also called cyCD3e 5-26 huFc
Description: as §1

[3] = biological target: T3, human CD3e 5-26-Fc(knob)-Avi/Fc(hole) (human, UniProt P0DOX5 223-449 = IgG part); assay: ELISA, biotinylated target on streptavidin plate
T3 construct: Residues 5-26 of mature CD3e fused to Fc(knob), co-expressed with Fc(hole); biotinylated for the ELISA; also called huCD3e 5-26- huFc
Description: as §1

[4] = biological target: T4, human CD3e amino acids 1-22 peptide (1:1 mixture of N- and C-terminally biotinylated variants) (human, biotin attached via linker to the N- or the C-terminus (1:1 mixture)); assay: ELISA, biotinylated target on streptavidin plate
T4 construct: Linker not described; also called huCD3e- 1-22 peptide
T4 sequence (peptide, as listed by the source mutant): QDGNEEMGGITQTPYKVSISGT
Description: as §1

[5] = biological target: T5, cynomolgus CD3e amino acids 1-22 peptide (1:1 mixture of N- and C-terminally biotinylated variants) (cynomolgus, biotin attached via linker to the N- or the C-terminus (1:1 mixture)); assay: ELISA, biotinylated target on streptavidin plate
T5 construct: Linker not described; also called cyCD3e- 1-22 peptide; cynomolgus CD3 peptide-1-22
T5 peptide: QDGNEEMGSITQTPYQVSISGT
Description: as §1

[6] = biological target: T6, cynomolgus CD3e stalk-Fc(knob)-Avi/CD3d-stalk-Fc(hole) (cynomolgus); assay: SPR (BIACORE T100), antibody captured by anti-rabbit IgG Fc, antigen in solution, 25 C, 1:1 Langmuir
T6 construct: Heterodimer; biotinylated for the ELISA; used in solution in SPR; also called cyCD3ed stalk huFc; cynomolgusCD3e(stalk)Fc-Knob-CD3d(stalk)FcHole
T6 sequence (chain, as listed by the source limits assumed): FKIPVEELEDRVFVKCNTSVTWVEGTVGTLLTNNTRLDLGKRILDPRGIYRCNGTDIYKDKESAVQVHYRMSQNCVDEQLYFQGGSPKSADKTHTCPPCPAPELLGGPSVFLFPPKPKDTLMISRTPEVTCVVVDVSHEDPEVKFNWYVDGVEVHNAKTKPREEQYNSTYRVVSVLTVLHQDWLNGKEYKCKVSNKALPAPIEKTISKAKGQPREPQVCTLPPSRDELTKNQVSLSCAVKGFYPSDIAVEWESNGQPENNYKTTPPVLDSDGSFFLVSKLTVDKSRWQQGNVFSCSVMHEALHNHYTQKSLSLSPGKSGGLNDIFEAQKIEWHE
Description: Around 2000 resonance units (RU) of the capturing system (10 μg/ml goat anti rabbit IgG Fc Fragment specific; Order Code: 111-005-046; Jackson Immuno Research) were coupled on a CM4 chip (GE Healthcare, BR-1005-34) at pH 5.0 by using an amine coupling kit supplied by the GE Healthcare. Running buffer for Immobilization was HBS-N pH 7.4 (10 mM HEPES, 150 mM NaCl, pH 7.4, GE Healthcare, BR-1006-70). For the followed kinetic assay running and dilution buffer was HBS-P pH 7.4 (10 mM HEPES, 150 mM NaCl, 0.05% Surfactant P20, pH 7.4, GE Healthcare, BR-1006-71). The flow cell was set to 25° C.—and the sample block set to 12° C.—and primed with running buffer twice. […] Association was measured by injection of human CD3e(stalk)Fc-Knob-CD3d(stalk)FcHole or cynomolgus CD3e(stalk)Fc-Knob-CD3d(stalk)FcHole in various concentrations in solution for 180 sec at a flow of 30 μl/min starting with 1350 nM, followed by one 1:1.5 dilution and further in 1:3 dilutions. The dissociation phase was monitored for up to 300 sec and triggered by switching from the sample solution to running buffer. The surface was regenerated by washing with two consecutive injections of a Glycine pH 1.7 solution for 60 sec at a flow rate of 10 μl/min. Bulk refractive index differences were corrected by subtracting the response obtained from a goat anti rabbit IgG Fc surface. Blank injections are also subtracted (=double referencing). For calculation of KD and other kinetic parameters the Langmuir 1:1 model was used.

B1: antibody clone 645 (antibody, V domains shown)
VH: QSLEESGGDLVKPGASLTLTCLASGFSFSGTYWICWVRQAPGKGLEWIGCISTDSGSTYYASWAKGRFTISKTSSTTVTLQMTSLTAADTATNFCARSAYASEGYALWGPGTLVTVSS
VL: AIVMTQTPSSKSVPVGDTVTINCQASESVYNNNYLSWYQQKPGQPPKLLIYYASTLASGVSSRFKGSGSGTQFTLTISDVVCDDAATYYCTGWKSITTDGMGAFGGGTEVVVKG
notes: Rabbit monoclonal; Recombinantly expressed with rabbit gamma and kappa constant regions in HEK293 (captured by anti-rabbit IgG Fc in SPR); also called Mab.645
binding result [1]: no binding | binding result [2]: no binding | binding result [3]: no binding | binding result [4]: no binding | binding result [5]: no binding | Kd [6]: 620 nM | koff [6]: 0.013 s⁻¹ | kon [6]: 21000 M⁻¹ s⁻¹
